# Measurements: PMC6980832, “Crystal structures of Triosephosphate Isomerases from Taenia solium and Schistosoma mansoni provide insights for vaccine rationale and drug design against helminth parasites” (PLoS Neglected Tropical Diseases, 2020)
# B1: SmTPI (Schistosoma mansoni) (protein)
# chain: MSGSRKFFVGGNWKMNGSRDDNDKLLKLLSEAHFDDNTEVLIAPPSVFLHEIRKSLKKEIHVAAQNCYKVSKGAFTGEISPAMIRDIGCDWVILGHSERRNIFGESDELIAEKVQHALAEGLSVIACIGETLSERESNKTEEVCVRQLKAIANKIKSADEWKRVVVAYEPVWAIGTGKVATPQQAQEVHNFLRKWFKTNAPNGVDEKIRIIYGGSVTAANCKELAQQHDVDGFLVGGASLKPEFTEICKARQR
# notes: full length, codon-optimised synthetic gene, E. coli tpi-null strain, modified pET19; extra Gly-Pro-His before Met1; homodimer about 50 kDa
# B2: TsTPI (Taenia solium) (protein)
# chain: MTRKLFVGGNWKMNGSYSHINTFFDTLQKADTDPNADIVIGVPACYLKYAQDKAPKGIKIAAENCYKVGSGAFTGEISTEMIKDCGCEWVILGHSERRHIFGESNELIGEKVKHALDSGLNVIPCIGELLSEREAGKTNDVCFAQMDAIAKNVPSKEAWDKVVIAYEPVWAIGTGKTATPAQAQEVHKVVRDWIRKHVDAGIADKVRILYGGSVTASNAKDLGTQPDVDGFLVGGASLKPDFITIINARR
# notes: full length, codon-optimised synthetic gene, E. coli tpi-null strain, modified pET19; extra Gly-Pro-His before Met1; homodimer
# How the values were obtained:
# purified protein [1] = substrate: O=CC(O)COP(=O)(O)O; assay: purified protein; type: biochemical, Schistosoma mansoni; conditions: 0.1 M TEA-HCl pH 7.4, 10 mM EDTA, 0.2 mM NADH, 21 °C, G3P 0 to 5 mM, G3P to DHAP direction
# purified protein [2] = substrate: O=CC(O)COP(=O)(O)O; assay: purified protein; type: biochemical, Taenia solium; conditions: 0.1 M TEA-HCl pH 7.4, 10 mM EDTA, 0.2 mM NADH, 21 °C, G3P 0 to 5 mM, G3P to DHAP direction
Protein,Km (purified protein [1]),kcat (purified protein [1]),kcat/Km (purified protein [1]),Km (purified protein [2]),kcat (purified protein [2]),kcat/Km (purified protein [2])
B1,480 ± 70 µM,2870 ± 138 s⁻¹,5.8e+06 M⁻¹ s⁻¹,–,–,–
B2,–,–,–,310 ± 30 µM,993 ± 44 s⁻¹,3.15e+06 M⁻¹ s⁻¹
